According to publication PMC4004294:
Read-outs that look alike come from different tables or passages of the source.

Experiments:
[1] = target: glutathione S-transferase (GST) tagged HIV-1 IN (HIV-1); test: AlphaScreen or HTRF
[2] = target: HIV-1 integrase fused to mVenus (IN-mVenus), transincorporated into virions as Vpr-IN-mVenus (HIV-1); test: FRET or BRET
[3] = target: HIV-1 integrase fused to mVenus (IN-mVenus), transincorporated into virions as Vpr-IN-mVenus (HIV-1); test: FRET or BRET; remark: listed apart in the source

| Substance | fold lower AlphaScreen signal than wild-type IN [1] [fold] | FRET ratio (r FRET) [2] | FRET ratio (r FRET) [3] |
| --- | --- | --- | --- |
| HIV-1 IN point mutant IN(W108G)-His6 (enzyme) | 4 | – | – |
| HIV-1 integrase fused to mTFP1 (IN-mTFP1), transincorporated into virions as Vpr-IN-mTFP1 (enzyme) | – | 1.27 | 1.3 |
